According to patent publication US20260266848A1, “COMPOSITIONS AND METHODS FOR DIAGNOSING AND TREATING DYSTONIA” (Duke University, priority 2023, published 2026):

Columns and labels:
[1] = tested on: DYT-TOR1A MEF EVs; test: Quantitative LC-MS/MS proteomics of EVs from drug-treated DYT-TOR1A MEF cultures (ritonavir, salubrinal); format: cell-based, mouse; set-up: key to RTV Corrective Direction / RTV Corrective Direction, Grwd1 / RTV Corrective Direction, Srrm2 / RTV Corrective Direction, Rbm17 / RTV Corrective Direction, Dcaf8 / RTV Corrective Direction, Edil3 / RTV Corrective Direction, Timp3 / RTV Corrective Direction, Heatr3 / RTV Corrective Direction, Brd4 / RTV Corrective Direction, P3h4 / RTV Corrective Direction, Pacsin3 / RTV Corrective Direction, Naa50 / RTV Corrective Direction, Lpar6 / RTV Corrective Direction, Ndrg1 / RTV Corrective Direction, Kntc1 / RTV Corrective Direction, Cdk11b / RTV Corrective Direction, Sumo1 / RTV Corrective Direction, Lsm4 / RTV Corrective Direction, Hmga2 / RTV Corrective Direction, Cstf1 / RTV Corrective Direction, Tes / RTV Corrective Direction, Sbno1 / RTV Corrective Direction, Unc119b / RTV Corrective Direction, Cfdp1 / RTV Corrective Direction, Sec61b: YES = protein abundance effect opposite to DYT/WT; details: EV protein abundance; for RTV Corrective Direction: DYT + RTV (ritonavir) vs DYT, direction compared with DYT/WT; for DYT + RTV/DYT Cohen's d: ritonavir (RTV)-treated DYT vs DYT
[2] = tested on: WT MEF EVs; test: Quantitative LC-MS/MS proteomics of EVs from ISRIB-treated WT MEF cultures; format: cell-based, mouse; set-up: key to ISRIB and DYT Parallel Direction / ISRIB and DYT Parallel Direction, Ctdsp1 / ISRIB and DYT Parallel Direction, Pcdh19 / ISRIB and DYT Parallel Direction, Tspan7 / ISRIB and DYT Parallel Direction, Myo1e / ISRIB and DYT Parallel Direction, Plpp3 / ISRIB and DYT Parallel Direction, Sh3bp4 / ISRIB and DYT Parallel Direction, Dnajc7 / ISRIB and DYT Parallel Direction, Drg1 / ISRIB and DYT Parallel Direction, Maea: YES = protein abundance effect similar to DYT/WT; details: EV protein abundance; for WT + ISRIB/WT Cohen's d: ISRIB-treated WT vs WT; for ISRIB and DYT Parallel Direction: WT + ISRIB vs WT, direction compared with DYT/WT

| Molecule | RTV Corrective Direction [1] | DYT + RTV/DYT Cohen's d [1] | WT + ISRIB/WT Cohen's d [2] | ISRIB and DYT Parallel Direction [2] |
| --- | --- | --- | --- | --- |
| Mtap (protein, UniProt Q9CQ65 1-283, looked up) S-methyl-5'-thioadenosine …: MASGSACTAVKIGIIGGTGLDDPEILEGRTEKYVDTPFGKPSDALILGKIKNVDCVLLARHGRQHTIMPSKVNYQANIWALKEEGCTHVIVTTACGSLREEIQPGDMVIIDQFIDRTSLRPQTFYDGSHCSARGVCHIPMAEPFCPKTREVLIETAKKLGLRCHSKGTIVTIEGPRFSSRAESLIFRTWGADVVNMTTVPEVVLAKEAGICYASIAMATDYDCWKEHEEAVSVDGVLKTMKENANKAKSLLLTTIPQIGSMEWSETLRNLKNMAQFSVLPPRH | YES | 3.50 | −0.85 | YES |
| Hsd17b4 (protein, UniProt P51660 1-735, looked up) Peroxisomal multifunctional …: MASPLRFDGRVVLVTGAGGGLGRAYALAFAERGALVIVNDLGGDFKGIGKGSSAADKVVAEIRRKGGKAVANYDSVEAGEKLVKTALDTFGRIDVVVNNAGILRDRSFSRISDEDWDIIHRVHLRGSFQVTRAAWDHMKKQNYGRILMTSSASGIYGNFGQANYSAAKLGILGLCNTLAIEGRKNNIHCNTIAPNAGSRMTETVLPEDLVEALKPEYVAPLVLWLCHESCEENGGLFEVGAGWIGKLRWERTLGAIVRKRNQPMTPEAVRDNWEKICDFSNASKPQTIQESTGGIVEVLHKVDSEGISPNRTSHAAPAATSGFVGAVGHKLPSFSSSYTELQSIMYALGVGASVKNPKDLKFVYEGSADFSCLPTFGVIVAQKSMMNGGLAEVPGLSFNFAKALHGEQYLELYKPLPRSGELKCEAVIADILDKGSGVVIVMDVYSYSGKELICYNQFSVFVVGSGGFGGKRTSEKLKAAVAVPNRPPDAVLRDATSLNQAALYRLSGDWNPLHIDPDFASVAGFEKPILHGLCTFGFSARHVLQQFADNDVSRFKAIKVRFAKPVYPGQTLQTEMWKEGNRIHFQTKVHETGDVVISNAYVDLVPASGVSTQTPSEGGELQSALVFGEIGRRLKSVGREVVKKANAVFEWHITKGGTVAAKWTIDLKSGSGEVYQGPAKGSADVTIIISDEDFMEVVFGKLDPQKAFFSGRLKARGNIMLSQKLQMILKDYAKL | YES | 4.01 | −2.20 | YES |
| Dbn1 (protein, UniProt Q16643 2-649, looked up) Drebrin: AGVSFSGHRLELLAAYEEVIREESAADWALYTYEDGSDDLKLAASGEGGLQELSGHFENQKVMYGFCSVKDSQAALPKYVLINWVGEDVPDARKCACASHVAKVAEFFQGVDVIVNASSVEDIDAGAIGQRLSNGLARLSSPVLHRLRLREDENAEPVGTTYQKTDAAVEMKRINREQFWEQAKKEEELRKEEERKKALDERLRFEQERMEQERQEQEERERRYREREQQIEEHRRKQQTLEAEEAKRRLKEQSIFGDHRDEEEETHMKKSESEVEEAAAIIAQRPDNPREFFKQQERVASASAGSCDVPSPFNHRPGSHLDSHRRMAPTPIPTRSPSDSSTASTPVAEQIERALDEVTSSQPPPLPPPPPPAQETQEPSPILDSEETRAAAPQAWAGPMEEPPQAQAPPRGPGSPAEDLMFMESAEQAVLAAPVEPATADATEIHDAADTIETDTATADTTVANNVPPAATSLIDLWPGNGEGASTLQGEPRAPTPPSGTEVTLAEVPLLDEVAPEPLLPAGEGCATLLNFDELPEPPATFCDPEEVEGESLAAPQTPTLPSALEELEQEQEPEPHLLTNGETTQKEGTQASEGYFSQSQEEEFAQSEELCAKAPPPVFYNKPPEIDITCWDADPVPEEEEGFEGGD | YES | 4.58 | −3.18 | YES |
| Plekho2 (protein, UniProt Q8K124 1-495, looked up) Pleckstrin homology …: MEEESIKEGSEKPRGARTADKAGWIKKSSGGLLGLWKDRYLLLCQAQLLVYENEDEQKCVETVELGSYEKCQDLRTLLKRKHHRFILLRSPGNKVSDIKFQAPSGEEKESWIKALNEGINRGKNKAFDEVKVDKTCALEHVTRNRVRGGQRRRPPTRIHLKEVASAASDGLSRLDLDVPDSGPPVFAPLSDISEDQPQEPPRALMPPVKPSPGPETSAVEDSKETPAGERALTPDSASSGANPESQEDAETPAKEDSDVKSLPNSTLSEKLKVSWENPSPEKPSAPESAQLSSSETPEATPRESKKPPAPPPKILSEKMKACMSGVDASGSSQSSEAPETTSPEPTQVSVNGMDDGPESALQAMGIPGPAPEDAAASPALPFSDLPSQFHPRSSSLGDLLRESPQHPRLPKEKLYRAQLEVKVASKQTEKLLNQVLGSEPPPVCAESLLSQAVEQLRQATQVLQEMRDLGELNQETPGLVQKRKELVTLYRRSAP | YES | −5.03 | 0.14 | YES |
| Ddx5 (protein, UniProt Q61656 1-614, looked up) Probable ATP-dependent RNA …: MSSYSSDRDRGRDRGFGAPRFGGSRTGPLSGKKFGNPGEKLVKKKWNLDELPKFEKNFYQEHPDLARRTAQEVDTYRRSKEITVRGHNCPKPVLNFYEANFPANVMDVIARQNFTEPTAIQAQGWPVALSGLDMVGVAQTGSGKTLSYLLPAIVHINHQPFLERGDGPICLVLAPTRELAQQVQQVAAEYCRACRLKSTCIYGGAPKGPQIRDLERGVEICIATPGRLIDFLECGKTNLRRTTYLVLDEADRMLDMGFEPQIRKIVDQIRPDRQTLMWSATWPKEVRQLAEDFLKDYIHINIGALELSANHNILQIVDVCHDVEKDEKLIRLMEEIMSEKENKTIVFVETKRRCDELTRKMRRDGWPAMGIHGDKSQQERDWVLNEFKHGKAPILIATDVASRGLDVEDVKFVINYDYPNSSEDYIHRIGRTARSTKTGTAYTFFTPNNIKQVSDLISVLREANQAINPKLLQLVEDRGSGRSRGRGGMKDDRRDRYSAGKRGGFNTFRDRENYDRGYSNLLKRDFGAKTQNGVYSAANYTNGSFGSNFVSAGIQTSFRTGNPTGTYQNGYDSTQQYGSNVANMHNGMNQQAYAYPLPQAAPMIGYPMPTGYSQ | YES | 4.48 | −0.92 | YES |
| Efemp1 (protein, UniProt Q8BPB5 18-493, looked up) EGF-containing fibulin-like …: QYTEETITYTQCTDGYEWDPIRQQCKDIDECDIVPDACKGGMKCVNHYGGYLCLPKTAQIIVNNEHPQQETPAAEASSGATTGTVAARSMATSGVVPGGGFMASATAVAGPEVQTGRNNFVIRRNPADPQRIPSNPSHRIQCAAGYEQSEHNVCQDIDECTSGTHNCRTDQVCINLRGSFTCQCLPGYQKRGEQCVDIDECTVPPYCHQRCVNTPGSFYCQCSPGFQLAANNYTCVDINECDASNQCAQQCYNILGSFICQCNQGYELSSDRLNCEDIDECRTSSYLCQYQCVNEPGKFSCMCPQGYEVVRSRTCQDINECETTNECREDEMCWNYHGGFRCYPRNPCQDHYVLTSENRCVCPVSNTMCRELPQSIVYKYMSIRSDRSVPSDIFQIQATMIYANTINTFRIKSGNENGEFYLRQTSPVSAMLVLVKSLSGPREYIVDLEMLTVSSIGTFRTSSVLRLTIIVGPFSF | YES | −4.60 | 0.07 | YES |
| Scfd1 (protein, UniProt Q8BRF7 1-639, looked up) Sec1 family domain-containing …: MVGSKMAATASIRERQTVALKRMLNFNVPHVKNSTGEPVWKVLIYDRFGQDIISPLLSVKELRDMGITLHLLLHSDRDPIPDVPAVYFVMPTEENIDRLCQDLRNQLYESYYLNFISAISRSKLEDIANAALAASAVTQVAKVFDQYLNFITLEDDMFVLCNQNKELVSYRAINRPDITDTEMETVMDTIVDSLFCFFVTLGAVPIIRCSRGTAAEMVAVKLDKKLRENLRDARNSLFTGDPLGTGQFSFQRPLLVLVDRNIDLATPLHHTWTYQALVHDVLDFHLNRVNLEESTGVENSPAGARPKRKNKKSYDLTPVDKFWQKHKGSPFPEVAESVQQELESYRAQEDEVKRLKSIMGLEGEDEGAISMLSDNTAKLTSAVSSLPELLEKKRLIDLHTNVATAVLEHIKARKLDVYFEYEEKIMSKTTLDKSLLDVISDPDAGTPEDKMRLFLIYYISAQQAPSEVDLEQYKKALTDAGCNLSPLQYIKQWKAFAKMASTPASYGNTTTKPMGLLSRVMNTGSQFVMEGVKNLVLKQQNLPVTRILDNLMEMKSNPETDDYRYFDPKMLRSNDSSVPRNKSPFQEAIVFVVGGGNYIEYQNLVDYIKAKQGKHILYGCSEIFNATQFIKQLSQLGQK | YES | 4.43 | −2.48 | YES |
